T1: TNFR1 (Homo sapiens, UniProt P19438)
T1 chain: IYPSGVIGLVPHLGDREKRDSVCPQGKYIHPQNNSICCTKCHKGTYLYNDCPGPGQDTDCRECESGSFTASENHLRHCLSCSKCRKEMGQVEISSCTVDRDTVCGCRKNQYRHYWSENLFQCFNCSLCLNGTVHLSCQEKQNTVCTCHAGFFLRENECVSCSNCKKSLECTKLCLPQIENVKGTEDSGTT


Target: T1, TNFR1
Experiment: yeast display SC50

Binder	apparent Kd (screen)
K31L (designed binder) SMEEEVEKAAKEYEKKKKEAIEKHLEKLKALDKEAAERFLKELEEAAKEYAKDEAKTMSEEEAKRRAKKYKEKVLLSELSEEEQKEIKEAEEKLVRTILKYVEEAAK	0.49 nM
K33M (designed binder) SMEEEVEKAAKEYEKKKKEAIEKHLEKLKAKDMEAAERFLKELEEAAKEYAKDEAKTMSEEEAKRRAKKYKEKVLLSELSEEEQKEIKEAEEKLVRTILKYVEEAAK	0.593 nM
E45D (designed binder) SMEEEVEKAAKEYEKKKKEAIEKHLEKLKAKDKEAAERFLKELEDAAKEYAKDEAKTMSEEEAKRRAKKYKEKVLLSELSEEEQKEIKEAEEKLVRTILKYVEEAAK	0.539 nM
V6S (designed binder) SMEEESEKAAKEYEKKKKEAIEKHLEKLKAKDKEAAERFLKELEEAAKEYAKDEAKTMSEEEAKRRAKKYKEKVLLSELSEEEQKEIKEAEEKLVRTILKYVEEAAK	1.4 nM
D53S (designed binder) SMEEEVEKAAKEYEKKKKEAIEKHLEKLKAKDKEAAERFLKELEEAAKEYAKSEAKTMSEEEAKRRAKKYKEKVLLSELSEEEQKEIKEAEEKLVRTILKYVEEAAK	0.446 nM
Y70D (designed binder) SMEEEVEKAAKEYEKKKKEAIEKHLEKLKAKDKEAAERFLKELEEAAKEYAKDEAKTMSEEEAKRRAKKDKEKVLLSELSEEEQKEIKEAEEKLVRTILKYVEEAAK	5.84 nM
S59M (designed binder) SMEEEVEKAAKEYEKKKKEAIEKHLEKLKAKDKEAAERFLKELEEAAKEYAKDEAKTMMEEEAKRRAKKYKEKVLLSELSEEEQKEIKEAEEKLVRTILKYVEEAAK	1.69 nM
I98G (designed binder) SMEEEVEKAAKEYEKKKKEAIEKHLEKLKAKDKEAAERFLKELEEAAKEYAKDEAKTMSEEEAKRRAKKYKEKVLLSELSEEEQKEIKEAEEKLVRTGLKYVEEAAK	6.43 nM
E91A (designed binder) SMEEEVEKAAKEYEKKKKEAIEKHLEKLKAKDKEAAERFLKELEEAAKEYAKDEAKTMSEEEAKRRAKKYKEKVLLSELSEEEQKEIKEAAEKLVRTILKYVEEAAK	7.07 nM
A63R (designed binder) SMEEEVEKAAKEYEKKKKEAIEKHLEKLKAKDKEAAERFLKELEEAAKEYAKDEAKTMSEEERKRRAKKYKEKVLLSELSEEEQKEIKEAEEKLVRTILKYVEEAAK	6.43 nM
R66M (designed binder) SMEEEVEKAAKEYEKKKKEAIEKHLEKLKAKDKEAAERFLKELEEAAKEYAKDEAKTMSEEEAKRMAKKYKEKVLLSELSEEEQKEIKEAEEKLVRTILKYVEEAAK	26.9 nM
Y101P (designed binder) SMEEEVEKAAKEYEKKKKEAIEKHLEKLKAKDKEAAERFLKELEEAAKEYAKDEAKTMSEEEAKRRAKKYKEKVLLSELSEEEQKEIKEAEEKLVRTILKPVEEAAK	0.405 nM
K73G (designed binder) SMEEEVEKAAKEYEKKKKEAIEKHLEKLKAKDKEAAERFLKELEEAAKEYAKDEAKTMSEEEAKRRAKKYKEGVLLSELSEEEQKEIKEAEEKLVRTILKYVEEAAK	22.2 nM
K73E (designed binder) SMEEEVEKAAKEYEKKKKEAIEKHLEKLKAKDKEAAERFLKELEEAAKEYAKDEAKTMSEEEAKRRAKKYKEEVLLSELSEEEQKEIKEAEEKLVRTILKYVEEAAK	11.4 nM
Y13H (designed binder) SMEEEVEKAAKEHEKKKKEAIEKHLEKLKAKDKEAAERFLKELEEAAKEYAKDEAKTMSEEEAKRRAKKYKEKVLLSELSEEEQKEIKEAEEKLVRTILKYVEEAAK	0.446 nM
L25A (designed binder) SMEEEVEKAAKEYEKKKKEAIEKHAEKLKAKDKEAAERFLKELEEAAKEYAKDEAKTMSEEEAKRRAKKYKEKVLLSELSEEEQKEIKEAEEKLVRTILKYVEEAAK	0.593 nM

Other lines, results leading:

apparent Kd (screen)	Binder
3 nM	R96A (designed binder) SMEEEVEKAAKEYEKKKKEAIEKHLEKLKAKDKEAAERFLKELEEAAKEYAKDEAKTMSEEEAKRRAKKYKEKVLLSELSEEEQKEIKEAEEKLVATILKYVEEAAK
1.4 nM	K107M (designed binder) SMEEEVEKAAKEYEKKKKEAIEKHLEKLKAKDKEAAERFLKELEEAAKEYAKDEAKTMSEEEAKRRAKKYKEKVLLSELSEEEQKEIKEAEEKLVRTILKYVEEAAM
0.593 nM	E83Q (designed binder) SMEEEVEKAAKEYEKKKKEAIEKHLEKLKAKDKEAAERFLKELEEAAKEYAKDEAKTMSEEEAKRRAKKYKEKVLLSELSEEQQKEIKEAEEKLVRTILKYVEEAAK
0.79 nM	E83N (designed binder) SMEEEVEKAAKEYEKKKKEAIEKHLEKLKAKDKEAAERFLKELEEAAKEYAKDEAKTMSEEEAKRRAKKYKEKVLLSELSEENQKEIKEAEEKLVRTILKYVEEAAK
12.5 nM	E49M (designed binder) SMEEEVEKAAKEYEKKKKEAIEKHLEKLKAKDKEAAERFLKELEEAAKMYAKDEAKTMSEEEAKRRAKKYKEKVLLSELSEEEQKEIKEAEEKLVRTILKYVEEAAK
0.49 nM	H24M (designed binder) SMEEEVEKAAKEYEKKKKEAIEKMLEKLKAKDKEAAERFLKELEEAAKEYAKDEAKTMSEEEAKRRAKKYKEKVLLSELSEEEQKEIKEAEEKLVRTILKYVEEAAK
1.86 nM	R38Q (designed binder) SMEEEVEKAAKEYEKKKKEAIEKHLEKLKAKDKEAAEQFLKELEEAAKEYAKDEAKTMSEEEAKRRAKKYKEKVLLSELSEEEQKEIKEAEEKLVRTILKYVEEAAK
0.539 nM	A35R (designed binder) SMEEEVEKAAKEYEKKKKEAIEKHLEKLKAKDKERAERFLKELEEAAKEYAKDEAKTMSEEEAKRRAKKYKEKVLLSELSEEEQKEIKEAEEKLVRTILKYVEEAAK
1.27 nM	K31C (designed binder) SMEEEVEKAAKEYEKKKKEAIEKHLEKLKACDKEAAERFLKELEEAAKEYAKDEAKTMSEEEAKRRAKKYKEKVLLSELSEEEQKEIKEAEEKLVRTILKYVEEAAK
0.49 nM	K41E (designed binder) SMEEEVEKAAKEYEKKKKEAIEKHLEKLKAKDKEAAERFLEELEEAAKEYAKDEAKTMSEEEAKRRAKKYKEKVLLSELSEEEQKEIKEAEEKLVRTILKYVEEAAK
11.4 nM	A63G (designed binder) SMEEEVEKAAKEYEKKKKEAIEKHLEKLKAKDKEAAERFLKELEEAAKEYAKDEAKTMSEEEGKRRAKKYKEKVLLSELSEEEQKEIKEAEEKLVRTILKYVEEAAK
1.05 nM	K8I (designed binder) SMEEEVEIAAKEYEKKKKEAIEKHLEKLKAKDKEAAERFLKELEEAAKEYAKDEAKTMSEEEAKRRAKKYKEKVLLSELSEEEQKEIKEAEEKLVRTILKYVEEAAK
3.99 nM	Y70G (designed binder) SMEEEVEKAAKEYEKKKKEAIEKHLEKLKAKDKEAAERFLKELEEAAKEYAKDEAKTMSEEEAKRRAKKGKEKVLLSELSEEEQKEIKEAEEKLVRTILKYVEEAAK
1.4 nM	E61Q (designed binder) SMEEEVEKAAKEYEKKKKEAIEKHLEKLKAKDKEAAERFLKELEEAAKEYAKDEAKTMSEQEAKRRAKKYKEKVLLSELSEEEQKEIKEAEEKLVRTILKYVEEAAK
0.405 nM	E34G (designed binder) SMEEEVEKAAKEYEKKKKEAIEKHLEKLKAKDKGAAERFLKELEEAAKEYAKDEAKTMSEEEAKRRAKKYKEKVLLSELSEEEQKEIKEAEEKLVRTILKYVEEAAK
1.4 nM	K8S (designed binder) SMEEEVESAAKEYEKKKKEAIEKHLEKLKAKDKEAAERFLKELEEAAKEYAKDEAKTMSEEEAKRRAKKYKEKVLLSELSEEEQKEIKEAEEKLVRTILKYVEEAAK
7.07 nM	K56G (designed binder) SMEEEVEKAAKEYEKKKKEAIEKHLEKLKAKDKEAAERFLKELEEAAKEYAKDEAGTMSEEEAKRRAKKYKEKVLLSELSEEEQKEIKEAEEKLVRTILKYVEEAAK
0.593 nM	E81F (designed binder) SMEEEVEKAAKEYEKKKKEAIEKHLEKLKAKDKEAAERFLKELEEAAKEYAKDEAKTMSEEEAKRRAKKYKEKVLLSELSFEEQKEIKEAEEKLVRTILKYVEEAAK
0.405 nM	L94I (designed binder) SMEEEVEKAAKEYEKKKKEAIEKHLEKLKAKDKEAAERFLKELEEAAKEYAKDEAKTMSEEEAKRRAKKYKEKVLLSELSEEEQKEIKEAEEKIVRTILKYVEEAAK
